B1: Type IV secretion system protein virB8 (Brucella suis biovar 1 (strain 1330)), Q7CEG3 (parent)
chain: MFGRKQSPQKSVKNGQGNAPSVYDEALNWEAAHVRLVEKSERRAWKIAGAFGTITVLLGIGIAGMLPLKQHVPYLVRVNAQTGAPDILTSLDEKSVSYDTVMDKYWLSQYVIARETYDWYTLQKDYETVGMLSSPSEGQSYASQFQGDKALDKQYGSNVRTSVTIVSIVPNGKGIGTVRFAKTTKRTNETGDGETTHWIATIGYQYVNPSLMSESARLTNPLGFNVTSYRVDPEMGVVQ
partner: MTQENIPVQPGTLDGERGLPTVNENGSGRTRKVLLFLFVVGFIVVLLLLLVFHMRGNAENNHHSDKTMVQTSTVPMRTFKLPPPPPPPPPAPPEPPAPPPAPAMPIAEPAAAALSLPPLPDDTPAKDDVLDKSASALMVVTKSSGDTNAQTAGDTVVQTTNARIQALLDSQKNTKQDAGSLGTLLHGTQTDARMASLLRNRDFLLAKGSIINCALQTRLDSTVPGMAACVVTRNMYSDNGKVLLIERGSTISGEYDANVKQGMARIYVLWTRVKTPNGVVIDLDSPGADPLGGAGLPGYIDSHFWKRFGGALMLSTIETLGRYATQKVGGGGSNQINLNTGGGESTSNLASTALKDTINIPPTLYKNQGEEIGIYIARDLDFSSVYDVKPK

Variants of: B1
Details: with virba_brusu virB10, Q9RPX5

Row | Variant | effect of a mutation on the interaction
1 | T201A | decreasing interaction strength
2 | T201Y | decreasing interaction strength
